Assay results reported in patent US6495346.

Columns and labels:
Assay in all cases: cell-based or functional assay
[1] = target: LCK-Gal4 (UniProt P04386)
[2] = target: wt-fos-Gal4 (SV40)
[3] = target: m-fos-Gal4 (SV40)

m-jun-VP16, sequence (P06492 411-455, tags or fused parts left off): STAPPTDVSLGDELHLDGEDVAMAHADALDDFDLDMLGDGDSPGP
wt-jun-VP16, sequence (P06492 411-455, tags or fused parts left off): as above
CD4-VP16, sequence (P06492 whole entry): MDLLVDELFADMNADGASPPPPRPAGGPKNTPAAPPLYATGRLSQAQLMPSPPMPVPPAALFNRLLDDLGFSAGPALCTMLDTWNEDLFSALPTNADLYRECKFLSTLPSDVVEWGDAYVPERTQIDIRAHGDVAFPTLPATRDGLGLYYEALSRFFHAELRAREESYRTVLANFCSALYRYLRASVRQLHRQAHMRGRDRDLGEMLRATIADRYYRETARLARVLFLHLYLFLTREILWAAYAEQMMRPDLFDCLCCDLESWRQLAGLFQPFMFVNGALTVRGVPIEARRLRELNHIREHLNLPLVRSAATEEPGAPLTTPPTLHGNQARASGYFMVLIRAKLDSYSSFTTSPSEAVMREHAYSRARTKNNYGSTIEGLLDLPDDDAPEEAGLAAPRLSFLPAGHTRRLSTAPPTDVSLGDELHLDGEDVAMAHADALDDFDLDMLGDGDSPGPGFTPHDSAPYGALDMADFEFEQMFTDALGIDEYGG

## CD4-VP16 (from UniProt P06492 406-488)
[1]
  Luciferase values (RLU), MeWo cells, G0/G1-synchronized cells, 10xBS Gal4-SV40 promoter (Tyr-LCK-Gal4-CycACD4-VP16): 5990 RLU
  Luciferase values (RLU), MeWo cells, proliferating cells, 10xBS Gal4-SV40 promoter (Tyr-LCK-Gal4-CycACD4-VP16): 72400 RLU

## m-jun-VP16 (from UniProt P06492 411-455; P05412 276-312)
[2]
  Luciferase values (RLU), MeWo cells, G0/G1-synchronized cells, 10xBS Gal4-SV40 promoter: 224 RLU
  Luciferase values (RLU), MeWo cells, proliferating cells, 10xBS Gal4-SV40 promoter: 290 RLU
[3]
  Luciferase values (RLU), MeWo cells, G0/G1-synchronized cells, 10xBS Gal4-SV40 promoter: 271 RLU
  Luciferase values (RLU), MeWo cells, G0/G1-synchronized cells, 10xBS Gal4-SV40 promoter, both subunits on one plasmid (Tyr-m-fos-CycA-m-jun): 12700 RLU
  Luciferase values (RLU), MeWo cells, proliferating cells, 10xBS Gal4-SV40 promoter: 18300 RLU
  Luciferase values (RLU), MeWo cells, proliferating cells, 10xBS Gal4-SV40 promoter, both subunits on one plasmid (Tyr-m-fos-CycA-m-jun): 1.02e+06 RLU

## wt-jun-VP16 (from UniProt P06492 411-455; P05412 276-312)
[3]
  Luciferase values (RLU), MeWo cells, G0/G1-synchronized cells, 10xBS Gal4-SV40 promoter: 283 RLU
  Luciferase values (RLU), MeWo cells, proliferating cells, 10xBS Gal4-SV40 promoter: 284 RLU
